One block for each binder: values may come before it.
How the values were obtained:
[1] = target: T1, extracellular domain of activin receptor type IIB (ActRIIBecd), biotinylated (Homo sapiens (Human), UniProt Q13705 27-117, amino-biotinylated with amine-PEG3-Biotin); test: BIAcore SPR, biotinylated ActRIIBecd on chip; SD ±13.71 nM
T1 construct: immobilised on a streptavidin-coated sensor chip; also called biotinylated ActRIIBecd; extracellular domain of ActRIIB
T1 sequence: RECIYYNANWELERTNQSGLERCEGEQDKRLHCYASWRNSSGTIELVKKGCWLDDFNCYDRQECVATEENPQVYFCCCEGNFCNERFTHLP
Experimental: (§1) Biosensor experiments. In one embodiment, experiments were performed on a BIAcore™ T100/T200 instrument (Pharmacia Biosensor AB) in the multichannel mode (serial flow path involving flow cells 1+2+3+4). Flow rate was 10 μl/min; temperature was 25° C.; and data were recorded at 2.5 points/s. All four segments of a sensor chip CMS were coated with streptavidin (Sigma) to a density of 2000 pg/mm² (2000 resonance units) by the aminocoupling procedure. ActRIIBecd (10 mg) and amine-PEG3-Biotin (10 mg, Pierce, Rockford, Ill.) were dissolved in 200 μl H₂O and 10 mg NaCNBH₃ was added to prepare biotinylated ActRIIBecd. The reaction mixture was heated at 70° C. for 24 h, after that a further 10 mg NaCNBH₃ was added and the reaction was heated at 70° C. for another 24 h. After cooling to room temperature, the mixture was desalted with the spin column (3,000 molecular weight cut off (MWCO)). […] Sensograms were recorded during flow of the analyte (the ActRIIBecd-associated polypeptides (i.e., domains) as previously described) first through flow cell 1 (control) then through flow cell 2 (biotinylated ActRIIBecd). […] The sensograms obtained at 1.11, 3.33, 10, 30, and 90 nM analyte were evaluated for equilibrium binding, association rate, and dissociation rate by using the programs supplied with the instrument (BIA evaluation 2.1; Software Handbook. 1995; Pharmacia Biosensor AB).

[2] = target: T1, extracellular domain of activin …; test: BIAcore SPR, biotinylated ActRIIBecd on chip; SD ±19.51 nM
Experimental: as §1

[3] = target: T1, extracellular domain of activin …; test: BIAcore SPR, biotinylated ActRIIBecd on chip; SD ±13.64 nM
Experimental: as §1

[4] = target: T1, extracellular domain of activin …; test: BIAcore SPR, biotinylated ActRIIBecd on chip; SD ±12.74 nM
Experimental: as §1

[5] = target: T1, extracellular domain of activin …; test: BIAcore SPR, biotinylated ActRIIBecd on chip; SD ±13.42 nM
Experimental: as §1

[6] = target: T1, extracellular domain of activin …; test: BIAcore SPR, biotinylated ActRIIBecd on chip; SD ±13.24 nM
Experimental: as §1

[7] = target: T1, extracellular domain of activin …; test: BIAcore SPR, biotinylated ActRIIBecd on chip; SD ±16.58 nM
Experimental: as §1

[8] = target: T1, extracellular domain of activin …; test: BIAcore SPR, biotinylated ActRIIBecd on chip; SD ±13.03 nM
Experimental: as §1

[9] = target: T1, extracellular domain of activin …; test: BIAcore SPR, biotinylated ActRIIBecd on chip; SD ±14.25 nM
Experimental: as §1

[10] = target: T1, extracellular domain of activin …; test: BIAcore SPR, biotinylated ActRIIBecd on chip; SD ±12.47 nM
Experimental: as §1

[11] = target: T1, extracellular domain of activin …; test: BIAcore SPR, biotinylated ActRIIBecd on chip; SD ±12.78 nM
Experimental: as §1

[12] = target: T1, extracellular domain of activin …; test: BIAcore SPR, biotinylated ActRIIBecd on chip; SD ±12.07 nM
Experimental: as §1

[13] = target: T1, extracellular domain of activin …; test: BIAcore SPR, biotinylated ActRIIBecd on chip; SD ±11.20 nM
Experimental: as §1

[14] = target: T1, extracellular domain of activin …; test: BIAcore SPR, biotinylated ActRIIBecd on chip; SD ±13.21 nM
Experimental: as §1

[15] = target: T1, extracellular domain of activin …; test: BIAcore SPR, biotinylated ActRIIBecd on chip; SD ±12.76 nM
Experimental: as §1

[16] = target: T1, extracellular domain of activin …; test: BIAcore SPR, biotinylated ActRIIBecd on chip; SD ±14.78 nM
Experimental: as §1

[17] = target: T1, extracellular domain of activin …; test: BIAcore SPR, biotinylated ActRIIBecd on chip; SD ±11.79 nM
Experimental: as §1

[18] = target: T1, extracellular domain of activin …; test: BIAcore SPR, biotinylated ActRIIBecd on chip; SD ±15.71 nM
Experimental: as §1

[19] = target: T1, extracellular domain of activin …; test: BIAcore SPR, biotinylated ActRIIBecd on chip; SD ±16.51 nM
Experimental: as §1

B2: Recombinant polypeptide of clones 12 + 16 (designed binder)
chain: AQAKHKQYKRLKSSCKRHPLYVDFSDVGWNDWAVAPPGYHAFYCHGECPFPLADHLNSDNHAIVQTLVNSV
Kd [2]: 67.4 nM

B3: Recombinant polypeptide of clones 8 + 14 (designed binder)
chain: GQAKRKGYKRLKSSCKRHPLYVDFKDVGWNDHAVAPPGYHAFYCHGECPFPLADHLNSDNHAIVQTKVNSV
Kd [3]: 35.1 nM

B4: Recombinant polypeptide of clones 10 + 15 (designed binder)
chain: AQAKHKQRKRLKSSCKRHPLYVDFSDVGWNDWIVAPPGYHAFYCHGECPFPLADHLNSTNHAIVQTLVNSV
Kd [4]: 31.3 nM

B7: Recombinant polypeptide of clones 21 + 15 (designed binder)
chain: NSKIPKACCVPTELSAISMLYLDENEKVVLKNYQDMVVEGCGCRVDFSDVGWNDWIVAPPGYHAFYCHGECPFPLADHLNSTNHAIVQTLVNSV
Kd [7]: 31 nM

B8: Recombinant polypeptide of clones 19 + 14 (designed binder)
chain: NSKDPKACCVPTELSAPSPLYLDENEKPVLKNYQDMVVHGCGCRVDFKDVGWNDHAVAPPGYHAFYCHGECPFPLADHLNSDNHAIVQTKVNSV
Kd [8]: 32.1 nM

B9: Recombinant polypeptide of clones 21 + 10 + 15 (designed binder)
chain: NSKIPKACCVPTELSAISMLYLDENEKVVLKNYQDMVVEGCGCRAQAKHKQRKRLKSSCKRHPLYVDFSDVGWNDWIVAPPGYHAFYCHGECPFPLADHLNSTNHAIVQTLVNSV
Kd [9]: 16.7 nM

B10: Recombinant polypeptide of clones 12 + 30 (designed binder)
chain: AQAKHKQYKRLKSSCKRHPLYTALDGTRGAQGSGGGGGGGGGGGGGGGGGGGGAGRGHGRRGRSRCSRKSLHVDFKELG
Kd [10]: 59.1 nM

B11: Recombinant polypeptide of clones 15 + 21 (designed binder)
chain: VDFSDVGWNDWIVAPPGYHAFYCHGECPFPLADHLNSTNHAIVQTLVNSVNSKIPKACCVPTELSAISMLYLDENEKVVLKNYQDMVVEGCGCR
Kd [11]: 32.6 nM

B13: Recombinant polypeptide of clones 10 + 15 + 21 (designed binder)
chain: AQAKHKQRKRLKSSCKRHPLYVDFSDVGWNDWIVAPPGYHAFYCHGECPFPLADHLNSTNHAIVQTLVNSVNSKIPKACCVPTELSAISMLYLDENEKVVLKNYQDMVVEGCGCR
Kd [13]: 17.2 nM

B16: Recombinant polypeptide of clones 14 + 8 + 19 (designed binder)
chain: VDFKDVGWNDHAVAPPGYHAFYCHGECPFPLADHLNSDNHAIVQTKVNSVGQAKRKGYKRLKSSCKRHPLYNSKDPKACCVPTELSAPSPLYLDENEKPVLKNYQDMVVHGCGCR
Kd [16]: 17.6 nM

B17: Recombinant polypeptide of clones 10 + 21 (designed binder)
chain: AQAKHKQRKRLKSSCKRHPLYNSKIPKACCVPTELSAISMLYLDENEKVVLKNYQDMVVEGCGCR
Kd [17]: 27.3 nM

B19: Recombinant polypeptide of clones 14 + 8 (designed binder)
chain: VDFKDVGWNDHAVAPPGYHAFYCHGECPFPLADHLNSDNHAIVQTKVNSVGQAKRKGYKRLKSSCKRHPLY
Kd [19]: 33.8 nM

Continued, values first:

Kd [1]: 61.1 nM
B1: Recombinant polypeptide of clones 30 + 12 (designed binder)
chain: TALDGTRGAQGSGGGGGGGGGGGGGGGGGGGGAGRGHGRRGRSRCSRKSLHVDFKELGAQAKHKQYKRLKSSCKRHPLY

Kd [5]: 31.1 nM
B5: Recombinant polypeptide of clones 8 + 19 (designed binder)
chain: GQAKRKGYKRLKSSCKRHPLYNSKDPKACCVPTELSAPSPLYLDENEKPVLKNYQDMVVHGCGCR

Kd [6]: 15.6 nM
B6: Recombinant polypeptide of clones 8 + 14 + 19 (designed binder)
chain: GQAKRKGYKRLKSSCKRHPLYVDFKDVGWNDHAVAPPGYHAFYCHGECPFPLADHLNSDNHAIVQTKVNSVNSKDPKACCVPTELSAPSPLYLDENEKPVLKNYQDMVVHGCGCR

Kd [12]: 31 nM
B12: Recombinant polypeptide of clones 14 + 19 (designed binder)
chain: VDFKDVGWNDHAVAPPGYHAFYCHGECPFPLADHLNSDNHAIVQTKVNSVNSKDPKACCVPTELSAPSPLYLDENEKPVLKNYQDMVVHGCGCR

Kd [14]: 15.1 nM
B14: Recombinant polypeptide of clones 15 + 10 + 21 (designed binder)
chain: VDFSDVGWNDWIVAPPGYHAFYCHGECPFPLADHLNSTNHAIVQTLVNSVAQAKHKQRKRLKSSCKRHPLYNSKIPKACCVPTELSAISMLYLDENEKVVLKNYQDMVVEGCGCR

Kd [15]: 30.2 nM
B15: Recombinant polypeptide of clones 21 + 10 (designed binder)
chain: NSKIPKACCVPTELSAISMLYLDENEKVVLKNYQDMVVEGCGCRAQAKHKQRKRLKSSCKRHPLY

Kd [18]: 33.5 nM
B18: Recombinant polypeptide of clones 19 + 8 (designed binder)
chain: NSKDPKACCVPTELSAPSPLYLDENEKPVLKNYQDMVVHGCGCRGQAKRKGYKRLKSSCKRHPLY
